# Results taken from patent publication US20100323955A1, “METHODS FOR TREATING OBESITY AND OBESITY RELATED DISEASES AND DISORDERS” (AMYLIN PHARMACEUTICALS, INC., priority 2007, published 2010).
# Legend:
# [1] = Example 3: leptin effect on body weight in normal HSD versus DIO prone rats; type: in vivo, rat; conditions: FIG. 9
# Source text: Normal, lean HSD rats were divided into two treatment groups. […] […] The DIO prone animals described herein appear resistant to the weight reducing effect of leptin.
# [2] = Example 8: 24-week randomized, double-blind clinical study of pramlintide and metreleptin in overweight and obese subjects; type: in vivo, human; conditions: 4-week lead-in; all subjects received pramlintide 180 then 360 mcg BID; columns name the later randomization groups
# Experimental: To evaluate inter alia the safety, tolerability and effect of the combination of an amylin agonist (pramlintide) and a leptin (metreleptin) on changes in body weight, a 24-week, randomized, double-blind, active-drug-controlled, multicenter study was conducted under USFDA approved protocols. Secondary objectives of the study were the determination of the pharmacokinetics of pramlintide and leptin, waist circumference, rate of change in body weight, and patient reported outcomes including for example without limitation perception of well-being related to weight change and mood. The study enrolled overweight and obese subjects with defined BMI ([…]), with enrollment statistics as provided in Table 2. […] Subjects treated with pramlintide/metreleptin lost an average of 25 pounds from the start of the 24-week study compared with an average of 17 pounds for subjects treated with pramlintide alone.
# In an initial lead-in phase, all subjects received dietary instructions and treatment with pramlintide at 180 mcg BID for two weeks, followed by pramlintide at 360 mcg BID for two weeks. Subjects who completed the 4-week lead-in period and who lost 2-8 percent body weight during this period were eligible to continue the study. The term “enrolled” (Table 2) refers to subjects (N=177) receiving at least one dose of pramlintide during the lead-in period. […]
molecule,measurement,setting,value
"murine leptin (protein, UniProt P41160 22-167, looked up, murine leptin (Peprotech, catalog#450-31)) Leptin: VPIQKVQDDTKTLIKTIVTRINDISHTQSVSAKQRVTGLDFIPGLHPILSLSKMDQTLAVYQQVLTSLPSQNVLQIANDLENLRDLLHLLAFSKSCSLPQTSGLQKPESLDGVLEASLYSTEVVALSRLQGSLQDILQQLDVSPEC","body weight, DIO prone animals","[1]; DIO prone rats, leptin dose printed 500 mg/kg/day",ineffective
same,"body weight, normal HSD rats","[1]; normal, lean HSD rats, leptin 500 μg/kg/day, 14 days",significant and sustained reduction in body weight
same,Mean Change in Body Weight (kg) over lead-in period,[2],-3.97 kg
